Test results as given in patent US20250215097A1.
Each block holds one binder with its values, some of them ahead of it.

Target: human CCR8 (human) (UniProt P51685)
Assay: cell-based or functional assay

Chain of human CCR8 (human) (P51685 whole entry): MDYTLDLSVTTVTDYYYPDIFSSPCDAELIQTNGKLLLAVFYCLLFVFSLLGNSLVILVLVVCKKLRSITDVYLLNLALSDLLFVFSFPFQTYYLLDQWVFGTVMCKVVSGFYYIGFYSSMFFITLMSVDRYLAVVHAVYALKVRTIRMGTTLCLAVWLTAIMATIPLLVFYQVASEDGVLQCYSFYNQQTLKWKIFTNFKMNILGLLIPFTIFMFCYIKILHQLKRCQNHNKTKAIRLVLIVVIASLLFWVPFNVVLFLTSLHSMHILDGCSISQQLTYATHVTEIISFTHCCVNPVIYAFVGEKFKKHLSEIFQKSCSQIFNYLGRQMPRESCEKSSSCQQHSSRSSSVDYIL

- ADCC EC50 (nM), PBMC FcγRIIIA158F/F effectors, HEK293-hCCR8 targets: 0.21 nM
- ADCC EC50 (nM), PBMC FcγRIIIA158V/V effectors, HEK293-hCCR8 targets: 0.03 nM
- ADCC maximal lysis rate, PBMC FcγRIIIA158F/F effectors, HEK293-hCCR8 targets: 61%
- ADCC maximal lysis rate, PBMC FcγRIIIA158V/V effectors, HEK293-hCCR8 targets: 63%
B1: h10A11 (antibody, from another filing, V domains shown)
VH: EVQLVESGGALVKPGGSLRLSCAASGFTFSTYALYWVRQAPGKGLEWVGRIRSKSNNYATYYADSVKDRFTISRDDSKNTLYLQMNSLKTEDTAVYYCTRARFYYSDYGYAMDYWGQGTLVTVSS
VL: DIVMTQSPDSLAVSLGERATINCRSSKSLLHSNGNTYLYWYQQKPGQPPKLLIYRMSNLASGVPDRFSGSGSGTDFTLTISSLQAEDVAVYYCMQHLEYPLTFGQGTKLEIKR

- ADCC EC50 (nM), NK92-CD16A effectors, HEK293-hCCR8 targets, LDH release: 0.12 nM
- ADCC EC50 (nM), PBMC FcγRIIIA158F/F effectors, HEK293-hCCR8 targets: 0.19 nM
- ADCC EC50 (nM), PBMC FcγRIIIA158V/V effectors, HEK293-hCCR8 targets: 0.05 nM
- ADCC half-maximal effective concentration (EC50), NK92-CD16A effectors, HEK293-hCCR8 targets: 0.03 nM
- ADCC maximal lysis rate, NK92-CD16A effectors, HEK293-hCCR8 targets: 30%
- ADCC maximal lysis rate, PBMC FcγRIIIA158F/F effectors, HEK293-hCCR8 targets: 66%
- ADCC maximal lysis rate, PBMC FcγRIIIA158V/V effectors, HEK293-hCCR8 targets: 68%
B2: m10A11 (chimera) (antibody, from another filing, V domains shown)
VH: EVQLVESGGRLVQPKGSLKLSCAASGFAFNTYALYWIRQAPGKGLEWVARIRSKSNNYATYYADSVKDRFTISRDDSQSMLYLQMNNLKTEDTAMYYCVRARFYYSDYGYAMDYWGQGTSVTVSS
VL: DIVMTQAAPSVPVTPGESVSISCRSSKSLLHSNGNTYLYWFLQRPGQSPQLLIYRMSNLASGVPDRFSGSGSGTAFTLRISRVEAEDVGVYYCMQHLEYPLTFGAGTKLELKR
